# Test results reported in US20230265151A1, “GIP/GLP1 CO-AGONIST COMPOUNDS” (priority 2020, published 2023).
# Positions count from the first letter of the chain named. *1 amine or outer side, *2 acyl side, *3 side chain or, on linkers, in order; H or OH if unused. Where no end group is shown, it is not given here. Side-chain parts run from the residue outwards. [ ]: non-standard residue; d: D form. The star is where a group is joined. αMePhe(2-F) = C[C@](N)(Cc1ccccc1F)C(=O)O; γGlu = O=C(O)[C@H](CCC(=O)[*:2])N[*:1]; C14 diacid = O=C(O)CCCCCCCCCCCCC(=O)*; αMeY = C[C@](N)(Cc1ccc(O)cc1)C(=O)O; αMeL = CC(C)C[C@](C)(N)C(=O)O; Nle = CCCC[C@H](N)C(=O)O; Orn = NCCC[C@H](N)C(=O)O; AEEA = NCCOCCOCC(=O)O; Aib = CC(C)(N)C(=O)O
# T1: human glucose-dependent insulinotropic polypeptide (GIP) receptor (human, UniProt P48546 22-466)
# T1 sequence (looked up): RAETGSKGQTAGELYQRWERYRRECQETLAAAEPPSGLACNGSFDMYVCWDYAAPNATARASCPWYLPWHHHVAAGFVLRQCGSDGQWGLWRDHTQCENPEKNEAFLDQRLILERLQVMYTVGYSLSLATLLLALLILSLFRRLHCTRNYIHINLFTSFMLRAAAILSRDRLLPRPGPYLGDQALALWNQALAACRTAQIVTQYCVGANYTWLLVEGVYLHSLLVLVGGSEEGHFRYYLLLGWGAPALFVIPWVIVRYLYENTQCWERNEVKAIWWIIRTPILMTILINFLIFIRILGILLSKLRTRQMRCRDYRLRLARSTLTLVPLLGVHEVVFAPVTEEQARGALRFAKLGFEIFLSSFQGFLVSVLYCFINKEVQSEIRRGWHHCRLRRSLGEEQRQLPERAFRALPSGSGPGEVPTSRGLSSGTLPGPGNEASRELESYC
# B1: Example 225 (peptide)
# peptide: YXEGTXTSDXSIXLDXKAQXEFIXXLIEGGPSSGAPPPSK
# modifications: Aib2, αMeF(2F)6, 4Pal10, αMeL13, Orn16, K17(Z), Aib20, D-Glu24, αMeY25, K40(Z), C-terminal NH2; Z = AEEA3-(γ-Glu)-CO-(CH2)12-CO2H
# B2: Example 257 (peptide)
# peptide: B1 peptide
# modifications: Aib2, αMeF(2F)6, 2Nal10, αMeL13, Orn16, K17(Z), Aib20, D-Glu24, αMeY25, K40(Z), C-terminal NH2; Z = AEEA2-CO-(CH2)12-CO2H
# B3: Example 261 (peptide)
# peptide: B1 peptide
# modifications: Aib2, αMeF(2F)6, OMeY10, αMeL13, Orn16, K17(Z), Aib20, D-Glu24, αMeY25, K40(Z), C-terminal NH2; Z = AEEA2-(γ-Glu)-CO-(CH2)12-CO2H
# B4: Example 211 (peptide)
# peptide: YXEGTXTSDXXIXLDXKAQXEFIXXLIEGGKSSGAPPPS
# modifications: Aib2, αMeF(2F)6, 4Pal10, Ac5c11, αMeL13, Orn16, K17(Z), Aib20, D-Glu24, αMeY25, K31(Z), C-terminal NH2; Z = AEEA2-(γ-Glu)-CO-(CH2)12-CO2H
# B5: Example 249 (peptide)
# peptide: B4 peptide with X11S, E21K, K31P
# modifications: Aib2, αMeF(2F)6, 2Nal10, αMeL13, Orn16, K17(Z), Aib20, K21(Z), D-Glu24, αMeY25, C-terminal NH2; Z = AEEA2-(γ-Glu)-CO-(CH2)12-CO2H
# B6: Example 224 (peptide)
# peptide: B4 peptide with X11S, E28K, K31P
# modifications: Aib2, αMeF(2F)6, 4Pal10, αMeL13, Orn16, K17(Z), Aib20, D-Glu24, αMeY25, K28(Z), C-terminal NH2; Z = AEEA3-(γ-Glu)-CO-(CH2)12-CO2H
# B7: Example 265 (peptide)
# peptide: B4 peptide with X11S, E21K, K31P
# modifications: Aib2, αMeF(2F)6, OMeY10, αMeL13, Orn16, K17(Z), Aib20, K21(Z), D-Glu24, αMeY25, C-terminal NH2; Z = AEEA2-CO-(CH2)12-CO2H
# B8: Example 213 (peptide)
# peptide: B4 peptide
# modifications: Aib2, αMeF(2F)6, 4Pal10, αMeS11, αMeL13, Orn16, K17(Z), Aib20, D-Glu24, αMeY25, K31(Z), C-terminal NH2; Z = AEEA2-(γ-Glu)-CO-(CH2)12-CO2H
# B9: Example 259 (peptide)
# peptide: B4 peptide with X11S, E21K, K31P
# modifications: Aib2, αMeF(2F)6, OMeY10, αMeL13, Orn16, K17(Z), Aib20, K21(Z), D-Glu24, αMeY25, C-terminal NH2; Z = AEEA2-(γ-Glu)-CO-(CH2)12-CO2H
# B10: Example 250 (peptide)
# peptide: B4 peptide with X11S, E28K, K31P
# modifications: Aib2, αMeF(2F)6, 2Nal10, αMeL13, Orn16, K17(Z), Aib20, D-Glu24, αMeY25, K28(Z), C-terminal NH2; Z = AEEA2-(γ-Glu)-CO-(CH2)12-CO2H
# B11: Example 255 (peptide)
# peptide: B4 peptide with X11S, E21K, K31P
# modifications: Aib2, αMeF(2F)6, 2Nal10, αMeL13, Orn16, K17(Z), Aib20, K21(Z), D-Glu24, αMeY25, C-terminal NH2; Z = AEEA2-CO-(CH2)12-CO2H
# B12: Example 266 (peptide)
# peptide: B4 peptide with X11S, E28K, K31P
# modifications: Aib2, αMeF(2F)6, OMeY10, αMeL13, Orn16, K17(Z), Aib20, D-Glu24, αMeY25, K28(Z), C-terminal NH2; Z = AEEA2-CO-(CH2)12-CO2H
# B13: Example 214 (peptide)
# peptide: B4 peptide with X24K, K31P
# modifications: Aib2, αMeF(2F)6, 4Pal10, αMeS11, αMeL13, Orn16, K17(Z), Aib20, K24(Z), αMeY25, C-terminal NH2; Z = AEEA2-(γ-Glu)-CO-(CH2)12-CO2H
# B14: Example 260 (peptide)
# peptide: B4 peptide with X11S, E28K, K31P
# modifications: Aib2, αMeF(2F)6, OMeY10, αMeL13, Orn16, K17(Z), Aib20, D-Glu24, αMeY25, K28(Z), C-terminal NH2; Z = AEEA2-(γ-Glu)-CO-(CH2)12-CO2H
# B15: Example 271 (peptide)
# peptide: B4 peptide with X11S, E21K, K31P
# modifications: Aib2, αMeF(2F)6, Nle10, αMeL13, Orn16, K17(Z), Aib20, K21(Z), D-Glu24, αMeY25, C-terminal NH2; Z = AEEA2-CO-(CH2)12-CO2H
# B16: Example 256 (peptide)
# peptide: B4 peptide with X11S, E28K, K31P
# modifications: Aib2, αMeF(2F)6, 2Nal10, αMeL13, Orn16, K17(Z), Aib20, D-Glu24, αMeY25, K28(Z), C-terminal NH2; Z = AEEA2-CO-(CH2)12-CO2H
# B17: Example 269 (peptide)
# peptide: Y[Aib]EGT[αMePhe(2-F)]TSD[Nle]SI[αMeL]LD[Orn]IAQ[Aib]EFIK([AEEA-AEEA-γGlu-C14 diacid])[αMeY]LIK([AEEA-AEEA-γGlu-C14 diacid])GGPSSGAPPPS-NH2
# modifications: N-terminus assumed
# SMILES: CCCC[C@H](NC(=O)[C@H](CC(=O)O)NC(=O)[C@H](CO)NC(=O)[C@@H](NC(=O)[C@](C)(Cc1ccccc1F)NC(=O)[C@@H](NC(=O)CNC(=O)[C@H](CCC(=O)O)NC(=O)C(C)(C)NC(=O)[C@@H](N)Cc1ccc(O)cc1)[C@@H](C)O)[C@@H](C)O)C(=O)N[C@@H](CO)C(=O)N[C@H](C(=O)N[C@@](C)(CC(C)C)C(=O)N[C@@H](CC(C)C)C(=O)N[C@@H](CC(=O)O)C(=O)N[C@@H](CCCN)C(=O)N[C@H](C(=O)N[C@@H](C)C(=O)N[C@@H](CCC(N)=O)C(=O)NC(C)(C)C(=O)N[C@@H](CCC(=O)O)C(=O)N[C@@H](Cc1ccccc1)C(=O)N[C@H](C(=O)N[C@@H](CCCCNC(=O)COCCOCCNC(=O)COCCOCCNC(=O)CC[C@H](NC(=O)CCCCCCCCCCCCC(=O)O)C(=O)O)C(=O)N[C@@](C)(Cc1ccc(O)cc1)C(=O)N[C@@H](CC(C)C)C(=O)N[C@H](C(=O)N[C@@H](CCCCNC(=O)COCCOCCNC(=O)COCCOCCNC(=O)CC[C@H](NC(=O)CCCCCCCCCCCCC(=O)O)C(=O)O)C(=O)NCC(=O)NCC(=O)N1CCC[C@H]1C(=O)N[C@@H](CO)C(=O)N[C@@H](CO)C(=O)NCC(=O)N[C@@H](C)C(=O)N1CCC[C@H]1C(=O)N1CCC[C@H]1C(=O)N1CCC[C@H]1C(=O)N[C@@H](CO)C(N)=O)[C@@H](C)CC)[C@@H](C)CC)[C@@H](C)CC)[C@@H](C)CC
# Biological target: human glucagon receptor (human, UniProt P47871 26-477)
# Experiment: cell-based or functional assay
row,Binder,cAMP EC50 [nM]
1,B1,> 9950
2,B2,> 9950
3,B3,> 9950
4,B4,> 9950
5,B5,> 9950
6,B6,> 9950
7,B7,> 9950
8,B8,> 9950
9,B9,> 9950
10,B10,> 9950
11,B11,> 9950
12,B12,> 9950
13,B13,> 9950
14,B14,> 9950
15,B15,> 9950
16,B16,> 9950
17,B17,> 9950

# Biological target: human glucagon-like peptide-1 (GLP-1) receptor (human, UniProt P43220 24-463)
# Experiment: cell-based or functional assay
Binder,cAMP EC50 [nM],cAMP Emax [%]
B1,9.62,–
B2,2.03,82
B3,0.531,–
B4,3.55,93.1
B5,0.3,–
B6,7.51,88.4
B7,0.262,–
B8,2.14,94.8
B9,0.362,–
B10,0.414,–
B11,0.357,–
B12,0.282,90.5
B13,0.618,93.2
B14,0.547,–
B15,0.494,–
B16,0.249,–
B17,1.72,–

# Biological target: T1, human glucose-dependent insulinotropic …
# Experiment: cell-based or functional assay
Binder,cAMP EC50 [nM],cAMP Emax [%]
B1,0.0466,–
B2,0.148,–
B3,0.025,–
B4,0.0465,91.6
B5,0.0201,–
B6,0.0374,–
B7,0.0145,–
B8,0.0275,92
B9,0.0198,–
B10,0.021,–
B11,0.0213,–
B12,0.0136,–
B13,0.0351,93.7
B14,0.0239,–
B15,0.0186,–
B16,0.0175,–
B17,0.0335,–
